{"source": "patent US8586570", "key": {"[1]": {"system": "PKCα-S1"}, "[2]": {"system": "PKCα-S10"}, "[3]": {"system": "PKCα-S9"}}}
{"substance": "PKCα", "values": [{"measurement": "KM", "setting": "[1]", "value": 8.6, "unit": "µM"}, {"measurement": "Vmax (µmol min^-1 mg^-1) (µmol min^-1 mg^-1)", "setting": "[1]", "value": 5.9}, {"measurement": "Vmax/KM", "setting": "[1]", "value": 6200, "unit": "min⁻¹ mg⁻¹"}, {"measurement": "KM", "setting": "[2]", "value": 0.12, "unit": "µM"}, {"measurement": "Vmax (µmol min^-1 mg^-1) (µmol min^-1 mg^-1)", "setting": "[2]", "value": 2.2}, {"measurement": "Vmax/KM", "setting": "[2]", "value": 149000, "unit": "min⁻¹ mg⁻¹"}, {"measurement": "KM", "setting": "[3]", "value": 0.093, "unit": "µM"}, {"measurement": "Vmax (µmol min^-1 mg^-1) (µmol min^-1 mg^-1)", "setting": "[3]", "value": 1.8}, {"measurement": "Vmax/KM", "setting": "[3]", "value": 160000, "unit": "min⁻¹ mg⁻¹"}]}
{"substance": "PKCβI", "values": [{"measurement": "phosphorylation activity (1 µM peptide, 2 ng kinase)", "setting": "[2]", "value": "PKCβI and PKCθ are slightly more active than PKCα"}]}
{"substance": "PKCβII", "values": [{"measurement": "phosphorylation activity (1 µM peptide, 2 ng kinase)", "setting": "[2]", "value": "PKCβII and PKCγ have comparable activities to that of PKCα"}]}
{"substance": "PKCγ", "values": [{"measurement": "phosphorylation activity (1 µM peptide, 2 ng kinase)", "setting": "[2]", "value": "PKCβII and PKCγ have comparable activities to that of PKCα"}]}
{"substance": "PKCδ", "values": [{"measurement": "phosphorylation activity (1 µM peptide, 2 ng kinase)", "setting": "[2]", "value": "no activity is observed with PKCδ, PKCµ, and PKCν"}]}
{"substance": "PKCε", "values": [{"measurement": "phosphorylation activity (1 µM peptide, 2 ng kinase)", "setting": "[2]", "value": "very little activity is detected with PKCε, PKCζ, PKCη and PKCι"}]}
{"substance": "PKCη", "values": [{"measurement": "phosphorylation activity (1 µM peptide, 2 ng kinase)", "setting": "[2]", "value": "very little activity is detected with PKCε, PKCζ, PKCη and PKCι"}]}
{"substance": "PKCθ", "values": [{"measurement": "phosphorylation activity (1 µM peptide, 2 ng kinase)", "setting": "[2]", "value": "PKCβI and PKCθ are slightly more active than PKCα"}]}
